This is an account of results in publication PMC11474037.

In general, Kd refers to the concentration at which binding is half-saturated. Read a high Kd as a looser complex.

The assay deals with insulin receptor (purified IR, consisting of α and β subunits) (human (cloned from HEK293T cells)) (UniProt P06213). Nature of the assay: SPR.

For the substance “HtB-mNG (insulin B chain fused to mNeonGreen) (domain or fragment)”, the Kd amounted to 3.33 µM.
